In patent US20040161746A1 (published 2004):

T1: B1153 protein (human, UniProt Q96JG6 1-964)
T1 construct: also called indicator protein
T1 sequence: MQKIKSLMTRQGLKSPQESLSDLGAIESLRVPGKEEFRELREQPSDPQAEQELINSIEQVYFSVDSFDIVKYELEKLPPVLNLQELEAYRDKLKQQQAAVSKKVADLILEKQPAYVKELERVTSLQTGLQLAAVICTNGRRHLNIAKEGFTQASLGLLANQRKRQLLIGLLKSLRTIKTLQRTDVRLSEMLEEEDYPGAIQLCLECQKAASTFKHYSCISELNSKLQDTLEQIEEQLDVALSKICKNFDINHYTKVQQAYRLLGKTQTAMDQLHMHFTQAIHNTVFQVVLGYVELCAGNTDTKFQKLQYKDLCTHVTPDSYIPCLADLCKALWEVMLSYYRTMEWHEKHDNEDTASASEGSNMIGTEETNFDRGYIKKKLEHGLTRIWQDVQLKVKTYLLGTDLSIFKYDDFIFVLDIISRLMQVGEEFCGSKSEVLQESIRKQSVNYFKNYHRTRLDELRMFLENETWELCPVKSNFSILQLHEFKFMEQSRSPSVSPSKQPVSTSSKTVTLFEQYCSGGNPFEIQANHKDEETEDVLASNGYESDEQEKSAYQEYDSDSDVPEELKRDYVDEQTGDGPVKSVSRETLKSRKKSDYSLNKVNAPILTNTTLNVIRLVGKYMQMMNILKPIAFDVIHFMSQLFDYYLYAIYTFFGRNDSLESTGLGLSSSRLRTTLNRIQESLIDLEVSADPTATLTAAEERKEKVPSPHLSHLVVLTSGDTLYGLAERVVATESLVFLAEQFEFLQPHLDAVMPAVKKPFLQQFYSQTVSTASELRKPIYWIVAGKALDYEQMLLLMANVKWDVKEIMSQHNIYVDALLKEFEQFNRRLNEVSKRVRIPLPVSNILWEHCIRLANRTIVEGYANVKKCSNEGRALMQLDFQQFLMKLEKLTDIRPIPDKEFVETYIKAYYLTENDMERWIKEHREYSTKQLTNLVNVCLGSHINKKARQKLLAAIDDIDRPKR

B1: myosin binding subunit 85 partial sequence, Prey-No. 3 (590 aa to 782 aa) (other, human, UniProt Q9BZL4 590-782, looked up)
chain: PSRRPRVPGVENSDSPAQRAEAPDGQGPGPQAAREHRKVGKEWRGPAEGEEAEPADRSQESSTLEGGPSARRQRWQRDLNPEPEPESEEPDGGFRTLYAELRRENERLREALTETTLRLAQLKVELERATQRQERFAERPALLELERFERRALERKAAELEEELKALSDLRADNQRLKDENAALIRVISKLSK
notes: range 590-782; Prey clone from a Human Brain cDNA library in the yeast two-hybrid system
B2: myosin binding subunit 85 partial sequence, Prey-No. 4 (590 aa to 782 aa) (other, human, UniProt Q9BZL4 590-782, looked up)
chain: PSRRPRVPGVENSDSPAQRAEAPDGQGPGPQAAREHRKVGKEWRGPAEGEEAEPADRSQESSTLEGGPSARRQRWQRDLNPEPEPESEEPDGGFRTLYAELRRENERLREALTETTLRLAQLKVELERATQRQERFAERPALLELERFERRALERKAAELEEELKALSDLRADNQRLKDENAALIRVISKLSK
notes: range 590-782; Prey clone from a Human Brain cDNA library; It has the same amino acid range as Prey-No. 3 and differs only in 3'-UTR length; The prey fusion domain is not described
B3: myosin binding subunit 85 partial sequence, Prey-No. 11 (656 aa to 782 aa) (other, human, UniProt Q9BZL4 656-782, looked up)
chain: GPSARRQRWQRDLNPEPEPESEEPDGGFRTLYAELRRENERLREALTETTLRLAQLKVELERATQRQERFAERPALLELERFERRALERKAAELEEELKALSDLRADNQRLKDENAALIRVISKLSK
notes: range 656-782; Prey clone from a Human Brain cDNA library; The prey fusion domain is not described

molecular target: T1, B1153 protein; experiment: yeast two-hybrid (PROQUEST, GAL4), B1153 full-length ORF as bait, Human Brain cDNA library prey
Method: By the PROQUEST™ TWO-Hybrid system (Invitrogen) utilizing the in vivo gene expression system of GAL4 series yeast, a search for a protein that interacts with the protein of this invention was carried out. Screening for a protein that interacts with B1153 was conducted for the Human Brain cDNA library with the full-length ORF region (86 bp to 2977 bp) of the B1153 gene as a bait. In this case, protocol according to the manual attached to the system was used.

Binding result, binds:
B1
B2
B3
